Reference: PMC5512084

Legend:
[1] = molecular target: mononucleosome (calf thymus histone octamer assembled on 601 nucleosome positioning sequence DNA) (bovine (calf thymus))
[2] = molecular target: mononucleosome (calf thymus histone octamer assembled on 601 nucleosome positioning sequence DNA) (bovine (calf thymus)); assay: native gel or EMSA; 2 nM IRDYE-labeled mononucleosome with 50 bp of linker DNA on both ends, 2-fold dilution series of CHD enzyme; EMSA buffer (20 mM Tris HCl pH 8.0, 75 mM NaCl, 5 mM MgCl2), 30 min at 25 °C, 4% native PAGE

Substance | Km of nucleosome-stimulated ATP hydrolysis (nucleosome concentration at half-maximal ATPase activation; mononucleosome with 50-bp linker DNA on both sides) [1] [nM] | fold affinity against the nucleosome with only one 100-bp DNA linker [2] [fold]
CHD6 (from UniProt Q8TD26 1-2715) (enzyme) | 6 | 
CHD7 (from UniProt Q9P2D1 1-2997) (enzyme) | 6 | 
CHD8 (from UniProt Q9HCK8 1-2581) (enzyme) | 55 | 2
